Measurements published in the supplement of paper PMC9112550, “Optimization of the antimicrobial peptide Bac7 by deep mutational scanning” (BMC Biology, 2022).

System: Escherichia coli TOP10
Experiment: shrunken log2 fold change of peptide-encoding DNA abundance (4.5 h post-induction vs induction); higher = less antimicrobial activity (less host growth inhibition)
Settings: time post-induction: 4.5 h; library: site-saturation at positions 5, 18, 19, 20
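Note: peptides expressed intracellularly from a pBAD plasmid library in pooled LB shake-flask culture, induced with 0.3% L-arabinose, DNA abundance read by NGS, three biological replicates, DESeq2 with apeglm shrinkage.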

Sequence	shrunken log2 fold change
RRIRKRPPRLPRPRPRPQGPPRP	0.053
RRIRIRPPRLPRPRPRPHMDPRP	-0.103
RRIRPRPPRLPRPRPRPQSWPRP	-0.134
RRIRNRPPRLPRPRPRPSKRPRP	-0.0331
RRIRFRPPRLPRPRPRPLGIPRP	-0.869
RRIRKRPPRLPRPRPRPVSKPRP	0.128
RRIRFRPPRLPRPRPRPIANPRP	-0.0564
RRIRRRPPRLPRPRPRPFVYPRP	-0.0209
RRIRQRPPRLPRPRPRPTGHPRP	0.00113
RRIRERPPRLPRPRPRPRWFPRP	0.0416
RRIRLRPPRLPRPRPRPPEHPRP	0.188
RRIRLRPPRLPRPRPRPGLSPRP	0.00141
RRIRMRPPRLPRPRPRPWDVPRP	0.0498
RRIRLRPPRLPRPRPRPSYYPRP	-0.963
RRIRARPPRLPRPRPRPIVVPRP	-0.14
RRIRQRPPRLPRPRPRPSTDPRP	-0.468
RRIRRRPPRLPRPRPRPVHQPRP	0.208
RRIRHRPPRLPRPRPRPKPIPRP	-0.0951
RRIRPRPPRLPRPRPRPENQPRP	0.0738
RRIRARPPRLPRPRPRPRYAPRP	0.495
RRIRNRPPRLPRPRPRPTFCPRP	-0.379
RRIRNRPPRLPRPRPRPQQLPRP	-0.0538
RRIRERPPRLPRPRPRPFDYPRP	0.155
RRIRDRPPRLPRPRPRPWYDPRP	-0.6
RRIRQRPPRLPRPRPRPCVLPRP	-0.298

Sequence	shrunken log2 fold change
RRIRHRPPRLPRPRPRPPPAPRP	1.07
RRIRHRPPRLPRPRPRPRTMPRP	-0.0671
RRIRMRPPRLPRPRPRPHWPPRP	1.1
RRIRQRPPRLPRPRPRPIWIPRP	-0.206
RRIRWRPPRLPRPRPRPRSPPRP	0.779
RRIRLRPPRLPRPRPRPCKEPRP	-0.0177
RRIRHRPPRLPRPRPRPIYDPRP	-0.436
RRIRQRPPRLPRPRPRPLMSPRP	-0.0453
RRIRQRPPRLPRPRPRPTEVPRP	-0.018
RRIRQRPPRLPRPRPRPCWTPRP	-0.0267
RRIRGRPPRLPRPRPRPIEIPRP	-0.0543
RRIRWRPPRLPRPRPRPMTQPRP	0.0159
RRIRKRPPRLPRPRPRPTALPRP	0.213
RRIRARPPRLPRPRPRPQVHPRP	0.102
RRIRLRPPRLPRPRPRPTEYPRP	-0.0401
RRIRIRPPRLPRPRPRPCSPPRP	-0.271
RRIRARPPRLPRPRPRPQDWPRP	0.556
RRIRVRPPRLPRPRPRPSHQPRP	0.0669
RRIRCRPPRLPRPRPRPGFEPRP	0.244
RRIRERPPRLPRPRPRPVHHPRP	-0.954
RRIRARPPRLPRPRPRPNCPPRP	-0.0021
RRIRCRPPRLPRPRPRPGSCPRP	-0.0844
RRIRRRPPRLPRPRPRPGRYPRP	0.218
RRIRQRPPRLPRPRPRPAAGPRP	0.0657
RRIRARPPRLPRPRPRPVYEPRP	-0.426

Sequence	shrunken log2 fold change
RRIRMRPPRLPRPRPRPFLWPRP	0.0175
RRIRDRPPRLPRPRPRPVGSPRP	0.519
RRIRSRPPRLPRPRPRPVSFPRP	0.118
RRIRPRPPRLPRPRPRPTTEPRP	0.109
RRIRPRPPRLPRPRPRPCEDPRP	-0.119
RRIRNRPPRLPRPRPRPGPQPRP	0.0395
RRIRTRPPRLPRPRPRPRVDPRP	0.181
RRIRCRPPRLPRPRPRPPCMPRP	-0.159
RRIRSRPPRLPRPRPRPFACPRP	-0.655
RRIRRRPPRLPRPRPRPITNPRP	-0.19
RRIRCRPPRLPRPRPRPVSLPRP	-0.379
RRIRGRPPRLPRPRPRPRDDPRP	0.536
RRIRRRPPRLPRPRPRPNIIPRP	-0.0888
RRIRNRPPRLPRPRPRPKGFPRP	-0.0324
RRIRLRPPRLPRPRPRPQSSPRP	-0.419
RRIRRRPPRLPRPRPRPMPRPRP	0.811
RRIRFRPPRLPRPRPRPFIDPRP	-0.389
RRIRKRPPRLPRPRPRPTPDPRP	0.559
RRIRGRPPRLPRPRPRPNQAPRP	-0.0774
RRIRFRPPRLPRPRPRPHAKPRP	0.229
RRIRGRPPRLPRPRPRPQYDPRP	0.101
RRIRIRPPRLPRPRPRPLFQPRP	-0.394
RRIRIRPPRLPRPRPRPVFIPRP	-0.472
RRIRSRPPRLPRPRPRPNAMPRP	-0.0346
RRIRMRPPRLPRPRPRPNIHPRP	-0.144

Sequence	shrunken log2 fold change
RRIRFRPPRLPRPRPRPKWTPRP	-0.196
RRIRDRPPRLPRPRPRPHPWPRP	0.114
RRIRLRPPRLPRPRPRPARLPRP	0.647
RRIRARPPRLPRPRPRPRVSPRP	0.492
RRIRSRPPRLPRPRPRPYQGPRP	-0.129
RRIRMRPPRLPRPRPRPWVWPRP	0.169
RRIRARPPRLPRPRPRPRKIPRP	0.429
RRIRRRPPRLPRPRPRPYRSPRP	-0.0969
RRIRCRPPRLPRPRPRPIFNPRP	-0.542
RRIRLRPPRLPRPRPRPGETPRP	-0.0544
RRIRVRPPRLPRPRPRPAVMPRP	-0.0705
RRIRCRPPRLPRPRPRPRYIPRP	-0.035
RRIRGRPPRLPRPRPRPTNTPRP	0.676
RRIRARPPRLPRPRPRPVSTPRP	-0.0272
RRIRIRPPRLPRPRPRPINKPRP	-1.11
RRIRERPPRLPRPRPRPGYMPRP	-0.172
RRIRRRPPRLPRPRPRPHQEPRP	-0.0374
RRIRERPPRLPRPRPRPSVKPRP	-0.625
RRIRPRPPRLPRPRPRPNFPPRP	0.0652
RRIRQRPPRLPRPRPRPVQYPRP	-0.0137
RRIRQRPPRLPRPRPRPTVIPRP	-0.0817
RRIRFRPPRLPRPRPRPEDEPRP	0.0432
RRIRFRPPRLPRPRPRPSCCPRP	-0.443
RRIRIRPPRLPRPRPRPTMRPRP	0.553
RRIRDRPPRLPRPRPRPNFAPRP	0.605

Sequence	shrunken log2 fold change
RRIRCRPPRLPRPRPRPVNIPRP	-0.971
RRIRKRPPRLPRPRPRPGLPPRP	0.348
RRIRNRPPRLPRPRPRPRFPPRP	-0.365
RRIRARPPRLPRPRPRPQRYPRP	-0.071
RRIRGRPPRLPRPRPRPRMLPRP	0.356
RRIRCRPPRLPRPRPRPLNAPRP	-0.255
RRIRRRPPRLPRPRPRPYCHPRP	-0.792
RRIRKRPPRLPRPRPRPRDQPRP	0.000671
RRIRDRPPRLPRPRPRPHDFPRP	-0.00663
RRIRLRPPRLPRPRPRPSQNPRP	-0.278
RRIRGRPPRLPRPRPRPMNHPRP	0.116
RRIRVRPPRLPRPRPRPESWPRP	0.28
RRIRHRPPRLPRPRPRPKHPPRP	-0.0271
RRIRTRPPRLPRPRPRPWSYPRP	-1.86
RRIRKRPPRLPRPRPRPTCNPRP	0.198
RRIRQRPPRLPRPRPRPVPPPRP	0.536
RRIRVRPPRLPRPRPRPALAPRP	0.484
RRIRTRPPRLPRPRPRPHMYPRP	-0.275
RRIRNRPPRLPRPRPRPDWCPRP	0.0226
RRIRYRPPRLPRPRPRPWKYPRP	-0.0732
RRIRQRPPRLPRPRPRPYHIPRP	0.0735
RRIRTRPPRLPRPRPRPWMEPRP	-0.326
RRIRSRPPRLPRPRPRPCNRPRP	0.0326
RRIRARPPRLPRPRPRPPYSPRP	-0.0108
RRIRPRPPRLPRPRPRPAPCPRP	0.236

Sequence	shrunken log2 fold change
RRIRVRPPRLPRPRPRPCPSPRP	-0.0233
RRIRIRPPRLPRPRPRPERTPRP	0.0643
RRIRYRPPRLPRPRPRPNARPRP	-0.0675
RRIRMRPPRLPRPRPRPHIPPRP	-0.289
RRIRMRPPRLPRPRPRPYWLPRP	-0.0329
RRIRARPPRLPRPRPRPVYNPRP	-0.482
RRIRYRPPRLPRPRPRPSMIPRP	-0.77
RRIRRRPPRLPRPRPRPIQQPRP	-0.0495
RRIRHRPPRLPRPRPRPGKHPRP	-0.362
RRIRTRPPRLPRPRPRPVNSPRP	-0.342
RRIRNRPPRLPRPRPRPMQIPRP	0.0592
RRIRMRPPRLPRPRPRPNVKPRP	-0.0702
RRIRDRPPRLPRPRPRPPRWPRP	0.331
RRIRCRPPRLPRPRPRPTATPRP	0.299
RRIRYRPPRLPRPRPRPNFIPRP	-1.22
RRIRGRPPRLPRPRPRPHEWPRP	0.116
RRIRLRPPRLPRPRPRPPDLPRP	0.169
RRIRERPPRLPRPRPRPSMPPRP	-0.484
RRIRERPPRLPRPRPRPRNIPRP	-0.095
RRIRQRPPRLPRPRPRPLYFPRP	-0.623
RRIRHRPPRLPRPRPRPKVDPRP	-0.0132
RRIRRRPPRLPRPRPRPQQVPRP	-0.0275
RRIRHRPPRLPRPRPRPIWSPRP	-0.085
RRIRIRPPRLPRPRPRPDVYPRP	-0.571
RRIRARPPRLPRPRPRPTPAPRP	1.05
